Data from patent US20230272117A1 (published 2023).
Substitutions are numbered along the chain they refer to.

B1: C1.879A (antibody, V domains shown)
VH: EVQLTESGPGLVQPSQTLSLTCTVSGFSLTSNGVSWVRQPPGKGLEWIAAISSGGSTYYNSAFKSRLSISRHTSKSQVLLNMNSLQTEDTAMYFCARHRGYYWSNWGYFDYWGQGVMVTVSS
VL: DIQLTQSPSLLSASVGDRVTLSCKGSQNINNYLAWYQQKVGEAPKLLIYKTNSLQTGIPSRFSGSGSGTDYTLTISSLHSEDLATYYCYQYNNGYTFGAGTKLELKR
B2: C1.778b (antibody, V domains shown)
VH: B1 VH with L4R, T5K, S31N, T57I, H72I, N81K, W103G, S104Y
VL: B1 VL with D1N, N30D, V40L, A43P
B3: C1.876 (antibody, V domains shown)
VH: B1 VH with E1Q, T5K, S31N, I51M, T57I, N81Q, A96T, W103G, S104Y
VL: DIQLTQSPSLLSASVGDSVSLRCKGSQNIYNYLAWYQQKLGEAPKLLIYKTNNLQTGIPSRFSGSGSGTDYTLTISSLNSEDLATYYCCQYNNGYTFGAGTKVELK
B4: C1.877 (antibody, V domains shown)
VH: B1 VH
VL: DIVMTQSPSLLSASVGDRVTLSCKGSQNINNYLAWYQQKLGEAPKLLIYETNSLQTGIPSRFSGSGSGTDYTLTLSSLHSEDLATYYCYQYNDGYTFGAGTKLEIK
B5: C1.861.hu41 (antibody, V domains shown)
VH: EVQLQESGPGLVKPSETLSLTCTVSGFSLTSSGVTWVRQPPGKGLEWIAAISSGGNIYYNSAVKSRLTISRDTSKNQVSLKLSSVTAADTAVYYCTRARGTTTAYVMDAWGQGTTVTVSS
VL: DVQLTQSPSSLSASVGDRVTITCKSSQSLLYSGNQKNYLAWYQQKPGKSPKLLIYWASTRQSGVPSRFSGSGSGTDFTLTISSLQPEDVATYYCQQYYDVLMNMFGGGTKLEIK
B6: C1.831.hu41 (antibody, V domains shown)
VH: EVQLQESGPGLVKPSETLSLTCTVSGFSLTSQGVSWVRQPPGKGLEWIAAISSGGNIYYNSVLKSRLTISRDTSKNQVSLKLSSVTAADTAVYYCTRERGWNYPFITSGYYFDYWGQGTLVTVSS
VL: DIQLTQSPSSLSASVGDRVTITCKAGQNINNYLAWYQQKPGKAPKLLIYNANSLQTGIPSRFSGSGSGTDYTLTISSLQPEDFATYYCQQYNSWYTFGQGTKLEIK
B7: C1.861.hu61 (antibody, V domains shown)
VH: EVQLVESGGGLIQPGGSLRLSCAVSGFSLTSSGVTWVRQPPGKGLEWIAAISSGGNIYYNSAVKSRLTISRDTSKNTVYLQMNSLRAEDTAVYFCTRARGTTTAYVMDAWGQGTTVTVSS
VL: B5 VL
B8: C1.855 (antibody, V domains shown)
VH: B1 VH with T5K, S53N, S56N, T57I, N81K, W103G, S104Y, V116A, M117S
VL: B4 VL with D1N, V3Q, M4L, A34G, K45R, E50K, L75I, D93N, I105L
B9: C1.845 (antibody, V domains shown)
VH: EVQLVESGPGLVQPSQTLSLTCTVSGFSLTNNGVSWVRQPPGKGLEWIAAISSGGSIYYNLAFKSRLSISRNTSKGQVLLKMNSLQTEDTAMYFCARHRGYYGYNWGYFDYWGQGASVTVSS
VL: B4 VL with D1N, V3Q, M4L, E50K, T69S, L75I, I105L
B10: C1.830B (antibody, V domains shown)
VH: EVQLKESGPGLVRPSQTLSLTCSVSGFSLTNYNVHWVRQPTGKGLEWMGIIWTGGYTDYNSDLKSRLSITRDTSKSQVFLKMNGLQTEDVATYYCARERHTMGITKSWYFDYWGQGASVTVSS
VL: DILMTQSPASLSASLGETISIECLASEGIFSYLGWYQQKPGKSPQLLIYGANSLQAGVPSRFSGSGSGTQYSLKISSMQPEDEGDYFCQQSYKFPVTFGSGTKLELK
B11: C1.841 (antibody, V domains shown)
VH: B1 VH with T5L, S31N, I48V, I51M, S56N, T57I, N81K, W103G, S104Y
VL: B3 VL with D1N, V103L
B12: C1.851 (antibody, V domains shown)
VH: B9 VH with V5K, V37I, S56N, L61S, G76R
VL: B1 VL with D1N, V40L, Y89C
B13: C1.844 (antibody, V domains shown)
VH: EVQLKESGPGLVQPSQTLSLTCTVSGFSLTSNGVIWVRQPPGKGLEWIAAISSGGNIYYNSGLKSRLGISRDTSKSQVFLKMNSLQTEDTAIYFCTRARGTTTAYVMDAWGQGASVTVSS
VL: DIVMTQSPSSLAVSAGETVNINCKSSQSLLYSVNQKNYLAWYQQKPGQSPKLLIYWASTRQSGVPDRFIGSGSGTDFTLTISSVQAEDLAIYYCQQYYDTLMKMFGAGTKLELK
B14: C1.847 (antibody, V domains shown)
VH: B9 VH with V5K, S56N, Y59H, L61S, F63L, S74A, K75Q, G76S, A116T, S117L
VL: B3 VL with D1N, S18R, S20T, R22S, N53S, N79H, V103L
B15: C1.779B (antibody, V domains shown)
VH: B13 VH with Q3K, K5L, V106F
VL: B13 VL with D1E, I2T, N20T, I21M, V33G, L113I
B16: C1.309 (antibody, V domains shown)
VH: QVQLKESGPGLVAPSQSLSITCTVSGFSLTSYDITWIRQPPGKGLEWLGVIWTGGGTNYNSAFMSRLSISKDSSKSQVFLKMNSLRTDDTAIYYCVRDLRYGYDGFWYFDVWGAGTTVTVSS
VL: DVVMTQTPLSLPVSLGDQASISCRSSQSIVHSNGNTYLEWYLQKPGQSPKLLIYKVSNRFSGVPDRFSGSGTGTDFTLKISRVEAEDLGVYYCFQGSHVPRTFGGGTKLEIK
B17: C1.777a (antibody, V domains shown)
VH: B9 VH with Q77H, A96V, Y104F, A116V, S117M
VL: B4 VL with D1N, V3Q, M4L, E50K, L75I, I105L
B18: C1.784a (antibody, V domains shown)
VH: EVKLEESGPGLVQPSQTLSLTCTVSGFSLTNNGVSWVRQPPGKGLEWIAAMSSGGNIYYNSAFKSRLSISRDTSKSQVLLKMSSLQTEDTAMYFCGRHRGYYWYNWGFFDYWGQGASVTVSS
VL: B3 VL with D1N, S18R, S20T, R22S, Y30N, N53S, Y71F, N79H, V103L
B19: C1.786a (antibody, V domains shown)
VH: EVQLTESGLGLVQPSQTLSLTCSVSGFSLTSYNVHWVRQPTGKGLEWMGVIWTGGYTDSNSPLKSRLSITRDTSKSQVFLKMNSLQSEDIATYYCARERHTMGITKSWYFDYWGQGVMVTVSS
VL: B10 VL with I2V, L3Q, G34A, S53T
B20: C1.773a (antibody, V domains shown)
VH: B9 VH with V5K, N31S, L61S, N72H, G76S
VL: B4 VL with D1N, V3Q, M4L, E50K, L75I, Y89S, D93N
B21: C1.781A (antibody, V domains shown)
VH: EVQLTESGPGLVQPSQTLSLTCTVSGFSLTSNGVSWVRLPPGKGLEWIAAISSGGNIYYNSALKSRLSISRDTSKSQVFLKMNSLQTEDTAIYFCTRERGWNYPGITNGYYFDYWGQGTSVTVSS
VL: DIVLTQSPSLLSASVGDRVILSCKAGQKINNYLAWYQQKLGEAPKLLIYNANSLQTGIPSRFSGSGSGTDYTLTISSLQPEDVATYFCQQYNSWYTFGAGTKLEIK
B22: C1.505.hu11 (antibody, V domains shown)
VH: EVQLQESGPGLVKPSETLSLTCTVSGFSLTSNGVSWVRQPPGKGLEWIAAISSGGSTYYNSAFKSRLTISRDTSKNQVSLKLSSVTAADTAVYYCARHRGYYWSNWGYFDYWGQGTLVTVSS
VL: B6 VL with A25G, G26S, N50K, A51T, Q89C, S93D, W94G

Target: T1, cynomolgus monkey ABCC1 (UniProt Q864R9 1-1531)
T1 sequence (Q864R9 whole entry): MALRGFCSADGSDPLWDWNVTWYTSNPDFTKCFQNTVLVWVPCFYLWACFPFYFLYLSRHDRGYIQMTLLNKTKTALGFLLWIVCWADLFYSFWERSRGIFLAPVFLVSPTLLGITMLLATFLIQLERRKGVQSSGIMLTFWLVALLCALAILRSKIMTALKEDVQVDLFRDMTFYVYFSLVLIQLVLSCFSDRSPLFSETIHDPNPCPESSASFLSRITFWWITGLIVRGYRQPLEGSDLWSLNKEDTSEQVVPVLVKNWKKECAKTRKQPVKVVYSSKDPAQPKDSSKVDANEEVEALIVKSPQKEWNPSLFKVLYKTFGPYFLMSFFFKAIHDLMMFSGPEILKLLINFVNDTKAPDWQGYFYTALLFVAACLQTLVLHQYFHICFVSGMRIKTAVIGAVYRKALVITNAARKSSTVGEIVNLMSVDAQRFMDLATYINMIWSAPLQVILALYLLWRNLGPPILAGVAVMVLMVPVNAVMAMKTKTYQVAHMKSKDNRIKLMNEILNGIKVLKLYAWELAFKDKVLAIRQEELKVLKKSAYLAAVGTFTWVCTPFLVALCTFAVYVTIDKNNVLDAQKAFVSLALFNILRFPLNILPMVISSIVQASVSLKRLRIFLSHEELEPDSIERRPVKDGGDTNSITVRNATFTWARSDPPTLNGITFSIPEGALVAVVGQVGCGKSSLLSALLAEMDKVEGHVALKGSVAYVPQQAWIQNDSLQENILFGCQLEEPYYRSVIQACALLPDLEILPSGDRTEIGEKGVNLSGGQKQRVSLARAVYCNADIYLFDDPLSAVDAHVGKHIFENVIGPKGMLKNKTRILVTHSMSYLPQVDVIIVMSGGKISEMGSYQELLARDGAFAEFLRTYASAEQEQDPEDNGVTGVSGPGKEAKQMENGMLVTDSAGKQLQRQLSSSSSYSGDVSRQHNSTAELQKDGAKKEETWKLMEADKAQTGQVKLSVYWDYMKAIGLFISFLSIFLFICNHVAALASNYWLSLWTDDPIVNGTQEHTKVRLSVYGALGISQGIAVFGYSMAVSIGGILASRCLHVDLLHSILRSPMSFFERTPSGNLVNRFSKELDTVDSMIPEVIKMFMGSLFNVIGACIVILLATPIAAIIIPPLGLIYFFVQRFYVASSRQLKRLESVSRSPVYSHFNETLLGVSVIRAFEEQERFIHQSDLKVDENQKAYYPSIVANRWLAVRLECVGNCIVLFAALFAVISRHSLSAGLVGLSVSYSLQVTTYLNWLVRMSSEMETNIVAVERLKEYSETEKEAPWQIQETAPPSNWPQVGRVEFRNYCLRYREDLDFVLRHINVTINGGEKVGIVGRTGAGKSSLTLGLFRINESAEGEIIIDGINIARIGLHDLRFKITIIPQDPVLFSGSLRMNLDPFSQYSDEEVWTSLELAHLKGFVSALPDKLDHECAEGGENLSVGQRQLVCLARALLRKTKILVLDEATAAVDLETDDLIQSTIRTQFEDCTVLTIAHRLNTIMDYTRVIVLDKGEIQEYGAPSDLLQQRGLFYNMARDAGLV
Assay: FACS titration on C6 cells; C6 cells

Binder	Kd
B1	0.0272 µM
B2	0.0282 µM
B3	0.0037 µM
B4	0.0668 µM

Target: T1, cynomolgus monkey ABCC1
Assay: FACS cell binding

Binder	Kd
B5	0.064 µM
B6	0.02 µM
B7	0.135 µM

Target: T2, human ATP Binding Cassette Subfamily C Member 1 (ABCC1) (UniProt P33527 1-1531)
Assay: FACS cell binding

Binder	Kd
B5	0.156 µM
B6	0.021 µM
B7	0.218 µM

Target: T2, human ATP Binding Cassette Subfamily C …
Assay: FACS titration on C6-hC1 cells

Binder	Kd
B8	> 1 µM
B9	0.0218 µM
B10	0.0144 µM
B11	0.103 µM
B12	0.098 µM
B13	0.0651 µM
B14	0.0217 µM

Target: T1, cynomolgus monkey ABCC1
Assay: FACS titration on C6-cC1 cells

Binder	Kd
B8	0.279 µM
B9	0.0201 µM
B10	0.0086 µM
B11	0.0423 µM
B12	0.028 µM
B13	0.0341 µM
B14	0.0233 µM

Target: T2, human ATP Binding Cassette Subfamily C …
Assay: FACS titration on H69AR cells

Binder	Kd
B15	0.0101 µM
B16	0.01 µM
B17	0.0042 µM
B2	0.0087 µM
B18	0.007 µM
B19	0.0083 µM
B20	0.0032 µM

Target: T2, human ATP Binding Cassette Subfamily C …
Assay: FACS titration on C6 cells

Binder	Kd
B15	0.0833 µM
B16	0.133 µM
B17	0.0412 µM
B2	0.667 µM
B18	0.0382 µM
B20	0.033 µM
B21	0.116 µM
B22	0.158 µM
